Laboratory results from paper PMC5577609.

Columns and labels:
[1] = biological target: HRL40-1 (isolectin of Halimeda renschii lectin HRL40) (Halimeda renschii); assay: LC-ESI-MS of the intact and of the reduced, S-pyridylethylated protein; LTQ Orbitrap XL; intact isolectin against the subunit mass derived after reduction with tri-n-butylphosphine and alkylation with 4-vinylpyridine
[2] = biological target: Halimeda renschii lectin HRL40 (Halimeda renschii); assay: SDS-PAGE, non-reducing and reducing; 12% gel; samples heated at 100 C in 0.2% SDS with or without 2% 2-mercaptoethanol; about 40 kDa non-reduced, 10 kDa reduced
[3] = biological target: influenza virus envelope glycoprotein hemagglutinin (influenza virus (strain not stated for the immobilised hemagglutinin)); assay: SPR; Biacore X100; […], HBS-N (10 mM HEPES, 150 mM NaCl, pH 7.4); […], dissociation 600 s; Langmuir 1:1 fit

Substance: HRL40-1 (isolectin of Halimeda renschii lectin HRL40) (natural protein)
- stoichiometry N [1]: 4

Substance: Halimeda renschii lectin HRL40 (natural protein)
- stoichiometry N [2]: 4
- Ka [3]: 2.71e+10 M⁻¹
- Kd [3]: 36.9 pM
- koff [3]: 2.63e-06 s⁻¹
- kon [3]: 71400 M⁻¹ s⁻¹
